Reference: patent US20240301046A1 (MABWELL THERAPEUTICS, published 2024)
Where a chain is given by its changes, count along the chain named. Read-outs that look alike come from different tables or passages of the source.

Legend:
[1] = target: T1, Aβ1-42 (rPeptide, A-1167-2) (UniProt P05067 672-713); experiment: direct ELISA, coated Aβ1-42
T1 construct: domain: Aβ1-42; also called Abeta 1-42
Method: (§1) Direct ELISA was used to test each antibody's affinity for Aβ₁₋₄₂ and pyroglutamate-modified Aβ (Aβₚ₃₋₄₂). Plates were coated with 0.5 μM of Aβ₁₋₄₂ (rPeptide, A-1167-2) or Aβₚ₃₋₄₂ (AnaSpec, AS-29907-01) for 2 h at 4° C. Diluents of antibodies (3-fold serial dilutions with concentrations in the range of 0-100 nM) were added to the plate for 1 h at RT. Binding of antibody to immobilized Aβ on each plate was detected by HRP-labeled secondary antibody and TMB substrate, as described in Example 2.

[2] = target: T2, biotin-labelled Aβ1-40 monomer (AnaSpec, AS-61483-01) (UniProt P05067 672-711, biotin label, position not stated); experiment: capture ELISA, coated antibody, biotin-Aβ1-40 monomer
T2 construct: domain: Aβ1-40; also called biotin-conjugated Aβ40 monomer; biotin-Aβ monomer
Method: (§2) A 96-well plate was coated with 5 μg/mL of antibodies overnight at RT. The plate was then treated with diluents of biotin-labelled Aβ₁₋₄₀ monomers (AnaSpec, AS-61483-01, 4-fold serial dilutions with concentrations in the range of 0-1000 nM) for 1 h at RT. The binding of biotin-labelled Aβ₁₋₄₀ monomers with immobilized antibody was detected by HRP-conjugated streptavidin and TMB, as described in Example 2.

[3] = target: T3, HiLyte488 labelled Aβ1-42 protofibrils (UniProt P05067 672-713, HiLyte488 fluorophore on part of the peptides (labelled and unlabelled Aβ1-42 monomers mixed 1:5)); experiment: cell-based or functional assay
[4] = target: T3, HiLyte488 labelled Aβ1-42 protofibrils; experiment: cell-based or functional assay; remark: listed apart in the source
[5] = target: T2, biotin-labelled Aβ1-40 monomer …; experiment: capture ELISA, coated antibody, biotin-Aβ1-40 monomer; remark: listed apart in the source
Method: The plate was incubated for 1 h at RT and washed 3 times with PBST. The plate was then incubated with HRP-conjugated streptavidin (Thermo Fisher Scientific, SNN2004) at 1:5000 diluted in 1% BSA for 20 min at RT and washed 3 times. TMB Stabilized Chromogen substrate solution (Life Technologies, SB02) was added to the plate, and the reaction was stopped by adding 1M sulfuric acid. The absorbance at 450 nm was measured in a plate reader.
as §2

[6] = target: T1, Aβ1-42 (rPeptide, A-1167-2); experiment: direct ELISA, coated Aβ1-42; remark: listed apart in the source
[7] = target: T4, pyroglutamate-modified Aβ (Aβp3-42) (AnaSpec, AS-29907-01) (UniProt P05067 674-713, pyroglutamate at Aβ position 3 (the N-terminus)); experiment: direct ELISA, coated Aβp3-42
T4 construct: domain: Aβp3-42; also called Abeta p3-42
Method: After 3 washes with 1× Phosphate-Buffered Saline, 0.1% Tween 20 (PBST), each plate was blocked with 1% BSA in PBS for 1 h at room temperature (RT). Diluents of Aβ antibodies (3-fold serial dilutions with concentrations in the range of 0-100 nM) were added to plates. The plate was incubated for 1 h at RT and washed 3 times. The plate was then incubated with HRP conjugated goat anti-mouse IgG (Thermo Fisher Scientific, G-21040; thermofisher.com) 1:5000 diluted in 1% BSA for 1 h at RT and washed 3 times. TMB (3,3′,5,5;-tetramethylbenzidine) Stabilized Chromogen substrate solution (Life Technologies (Thermo Fisher Scientific) SB02) was added to the plate, and the reaction was stopped by adding 1M sulfuric acid. The absorbance at 450 nm was measured in a plate reader.
as §1

[8] = target: T2, biotin-labelled Aβ1-40 monomer …; experiment: capture ELISA, coated antibody, biotin-Aβ1-40 monomer; remark: listed apart in the source
[9] = target: T1, Aβ1-42 (rPeptide, A-1167-2); experiment: direct ELISA, coated Aβ1-42; remark: listed apart in the source
[10] = target: T1, Aβ1-42 (rPeptide, A-1167-2); experiment: direct ELISA, coated Aβ1-42; remark: listed apart in the source
[11] = target: T4, pyroglutamate-modified Aβ (Aβp3-42) …; experiment: direct ELISA, coated Aβp3-42; remark: listed apart in the source

B1: 17D08A (antibody, V domains shown)
VH: EVQLVESGGGLVQPGGSLKLSCAASGFTFSGSAIHWVRQASGKGLEWVGRIRSKVNSYATAYAASVKGRFTISRDDSKNTAYLQMNSLKTEDTAVYYCTRHAPNFDAFDIWGQGTMVTVSS
VL: QSVLTQPPSVSAAPGQKVTISCSGYSSNIGNHYVSWYQQLPGTAPKFFIYDNNKRPSGIPDRFSGSKSGTSATLGITGLQTGDEADYYCGTWDSSLITYVFGTGTKVTVL
Q: With B1 as the binder, how does the EC50 [1] read?
A: Its EC50 is 0.075 nM.

Q: What about the EC50 [2] of the same binder?
A: Its EC50 is 0.34 nM.

Q: What about the “ADCP (RFU)” value [3] of the same binder?
A: The value was 194000 RFU.

B2: 22H10A (antibody, V domains shown)
VH: EMQLVESGGGLVKPGGSLRLSCAASGFTFSSYSMNWVRQAPGKGLEWVSSISTRKNYIYYADSVQGRFIFSRDNAKNALYLQMNSLRAEDSAVYYCTRGGYIRSPNAFDIWGQGTMVTVSS
VL: QTVVTQEPSLTVSPGGTVTLTCASSTGTVTSGYFPNWLQQKPGQAPRALIYSINNKHFWTPARFSGSLLGGKAALTLSGVQPEDEAEYYCLLYYGGAWVFGGGTKLTVL
Q: What does the source list for B2?
A: EC50 [1]: 0.075 nM; EC50 [2]: 0.07 nM; ADCP (RFU) [3]: 99100 RFU

B3: 21G10A (antibody, V domains shown)
VH: EVQLVESGGGSVQPGGSLRLSCAASGFTFSSYWMHWVRQAPGKGLVWVSRINSDGSITTYADSVKGRFTISRDNAKNTLYLQMNSLRAEDTAVYYCARGGGSLDYWGQGTLVTVSS
VL: B1 VL with Y25S, H32Y, F47L, F48L, I97S, T98A, Y99V, T103G, V107L
Q: B3 was tested. Which EC50 [1] did it give?
A: Its EC50 is 0.042 nM.

Q: And the EC50 [2]?
A: The EC50 was 0.02 nM.

Q: And the “ADCP (RFU)” value [3]?
A: The value was 245000 RFU.

B4: 17H05A (antibody, V domains shown)
VH: B3 VH with A40V, T59S, D90N
VL: B1 VL with Y25S, H32Y, F47L, F48L, N53H, I97S, T98A, Y99V, T103G, V107L
Q: B4 was tested. Which EC50 [1] did it give?
A: Its EC50 is 0.051 nM.

Q: What about the EC50 [2] of the same binder?
A: Its EC50 is 0.02 nM.

Q: What about the “ADCP (RFU)” value [3] of the same binder?
A: Its value is 279000 RFU.

B5: 18F06A (antibody, V domains shown)
VH: B3 VH with S11L, S53R, I57T, T59S, S85R, S102A, L103F, Y105I, L111M
VL: QSVLTQPPSVSAAPGQKVTISCSGSSSNIGNYYVSWYQQLPGTAPKLLIYDNNKRPSGIPDRFSASKSGTSATLGITGLQTGDEADYYCGTWDDSLSAVVFGGGTKLTVL
Q: For B5, which EC50 [1] is on record?
A: Its EC50 is 0.068 nM.

Q: And the “ADCP (RFU)” value [3]?
A: The value was 126000 RFU.

B6: 20O11A (antibody, V domains shown)
VH: B3 VH with S11L, V46A, S49A, I57S, T59S, S102L, L103F
VL: B5 VL with Y32H, A65G, D94S, S97G, V100L
Q: With B6 as the binder, how does the EC50 [1] read?
A: The EC50 was 0.05 nM.

Q: What about the EC50 [2] of the same binder?
A: The EC50 was 0.01 nM.

Q: And the “ADCP (RFU)” value [3]?
A: Its value is 257000 RFU.

B7: 21F12A (antibody, V domains shown)
VH: B3 VH with V5A, A40V, I57T
VL: B5 VL with A65G, Q80R, D94S
Q: For B7, which EC50 [1] is on record?
A: The EC50 was 0.048 nM.

Q: And the EC50 [2]?
A: Its EC50 is 0.01 nM.

Q: What about the “ADCP (RFU)” value [3] of the same binder?
A: Its value is 262000 RFU.

B8: 18P01A(mIgG2a) (antibody)
heavy: EVQLVESGGGLVQPGGSLKLSCAVSGFTFSGSAMHWVRQASGKGLEWVGRIRSKANSYATAYAASVKGRFTISRDDSKNTAFLQMNSLKTEDTAVYYCTSHAPNFDAFDIWGQGTMVTVSSASTKGPSVFPLAPCSRSTSESTAALGCLVKDYFPEPVTVSWNSGALTSGVHTFPAVLQSSGLYSLSSVVTVPSSNFGTQTYTCNVDHKPSNTKVDKTVERKCPPCKCPAPNLLGGPSVFIFPPKIKDVLMISLSPIVTCVVVDVSEDDPDVQISWFVNNVEVHTAQTQTHREDYNSTLRVVSALPIQHQDWMSGKEFKCKVNNKDLPAPIERTISKPKGSVRAPQVYVLPPPEEEMTKKQVTLTCMVTDFMPEDIYVEWTNNGKTELNYKNTEPVLDSDGSYFMYSKLRVEKKNWVERNSYSCSVVHEGLHNHHTTKSFSRTPGK
light: QSVLTQPPSVSAAPGQKVTISCSGSSSNIGNHYVSWYQQLPGTAPKFFIYDNSKRPSGIPDRFSGSKSGTSATLGITGLQTGDEADYYCGTWDSSLSTYVFGTGTKVTVLGQPKAAPSVTLFPPSSEELQANKATLVCLISDFYPGAVTVAWKADSSPVKAGVETTTPSKQSNNKYAASSYLSLTPEQWKSHRSYSCQVTHEGSTVEKTVAPTECS
notes: chimeric: human F(ab')2, mouse IgG2a CH2-CH3, recombinant
Q: What does the source list for B8?
A: ADCP (RFU) [4]: 488000 RFU; EC50 [5]: 248 nM; EC50 [6]: 0.087 nM

B9: 17P04A(mIgG2a) (antibody)
heavy: EVQLVESGGGLVKPGGSLRLSCAASGFTLSSFSMNWVRQAPGKGLEWVSSISSRRTYIYYADSAKGRFTFSRDNAKNSLYLQMNSLRAEDSAVYYCARGGYIGSPNAYDIWGQGTMVTVSSASTKGPSVFPLAPCSRSTSESTAALGCLVKDYFPEPVTVSWNSGALTSGVHTFPAVLQSSGLYSLSSVVTVPSSNFGTQTYTCNVDHKPSNTKVDKTVERKCPPCKCPAPNLLGGPSVFIFPPKIKDVLMISLSPIVTCVVVDVSEDDPDVQISWFVNNVEVHTAQTQTHREDYNSTLRVVSALPIQHQDWMSGKEFKCKVNNKDLPAPIERTISKPKGSVRAPQVYVLPPPEEEMTKKQVTLTCMVTDFMPEDIYVEWTNNGKTELNYKNTEPVLDSDGSYFMYSKLRVEKKNWVERNSYSCSVVHEGLHNHHTTKSFSRTPGK
light: QTVVTQEPSLTVSPGGTVTLTCASSTGAVTSDYYPNWFQQKPGQAPRALIYSASTKHSWTPARFSGSLLGGKAALTLSGVQPEDEADYYCLLYYGGAWVFGGGTKLTVLGQPKAAPSVTLFPPSSEELQANKATLVCLISDFYPGAVTVAWKADSSPVKAGVETTTPSKQSNNKYAASSYLSLTPEQWKSHRSYSCQVTHEGSTVEKTVAPTECS
notes: as for B8
Q: B9 was tested. Which EC50 [7] did it give?
A: Its EC50 is 19.4 nM.

Q: What about the “ADCP (RFU)” value [4] of the same binder?
A: The value was 375000 RFU.

Q: What about the EC50 [5] of the same binder?
A: The EC50 was 59 nM.

Q: And the EC50 [6]?
A: The EC50 was 0.057 nM.

B10: 15M13A (antibody, V domains shown)
VH: QVTLKESGPGILQPSQTLSLTCSFSGFSLSTFGMGVGWIRQPSGKGLEWLAHIWWDDDKYYNPALKSRLTISKDTSKNQVFLKIANVDTADTATYYCARLGYYPYWFFDVWGTGTTVTVSS
VL: B5 VL with Y32H, A65G, D94T
Q: For B10, which EC50 [1] is on record?
A: The EC50 was 0.038 nM.

Q: And the EC50 [2]?
A: Its EC50 is 0.78 nM.

Q: What about the “ADCP (RFU)” value [3] of the same binder?
A: Its value is 273000 RFU.

B11: 18P01A(hIgG1) (antibody)
heavy: not shown
light: B8 light
notes: fully human IgG1 lambda, expressed in CHO cells; also called Fully human 18P01A (hlgG1); fully human 18P01A
Q: For B11, which EC50 [8] is on record?
A: Its EC50 is 917 nM.

Q: What about the EC50 [9] of the same binder?
A: The EC50 was 50 nM.

Q: What about the “fold increase of EC50 against the original chimeric 18P01A” value [10] of the same binder?
A: The value was greater than 800 fold.

Q: What about the EC50 [11] of the same binder?
A: Its EC50 is 196 nM.

B12: 17P04A(hIgG1) (antibody)
heavy: not shown
light: B9 light
notes: fully human IgG1 lambda, expressed in CHO cells; also called Fully human 17P04A (hlgG1)
Q: With B12 as the binder, how does the EC50 [8] read?
A: Its EC50 is 33.8 nM.

Q: And the EC50 [9]?
A: The EC50 was 0.062 nM.

Q: What about the EC50 [11] of the same binder?
A: Its EC50 is 38.7 nM.
